Test [1] addresses human serum albumin (human) (UniProt P02768). The test is described as follows: ELISA, bacterial lysate on plate-bound antigen, luminescence. A general note: In an ELISA, binding on a coated surface is turned into a signal by an enzyme label.
Test [2] addresses unrelated Fc-fused recombinant protein (negative control). Described as above.
The target of test [3] is T1, recombinant biotinylated human CD137 protein (Fc-fusion protein, R&D Systems 838-4B) (human, UniProt Q07011 24-186, biotinylated (site not stated)).
T1 construct: Bought Fc fusion; The ELISA used the same antigen as the panning; also called CD137-Fc; biotinylated CD137; not shown: Fc part of the bought fusion protein
The test is described as above. Put shortly:
(§1)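 Biotinylated CD137-Fc, an unrelated Fc-fusion protein or human serum albumin captured 1 h on streptavidin plates blocked in Starting Block T20; diluted bacterial lysate applied 1 h. Bound binders detected with HRP-conjugated anti-Centyrin antibody (PAB25) for 1 h, then POD substrate read-out.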

The target in test [4] is extracellular domain of human CD137 on the surface of CHO-K1 cells (human, UniProt Q07011 24-186). The test is described as follows: flow cytometry on CHO-K1 cells with human CD137 ECD. As to the method:
Cell surface binding was analyzed via flow cytometry. Cenyrins were prepared at a maximal concentration of 500 nM in the presence of 125 nM anti His-mIgG1 antibody and then serially diluted in PBS/1% FCS buffer. Samples were then applied to approx 100 000 CHO-Kl cells expressing the extracellular domain of human CD137 on their surface. Unbound Centyrin/Antibody complexes were washed away and bound FN3 domains were detected by the addition of goat anti mouse-FITC labeled antibody. Samples were then aquired by flow cytometry. Subsequently, Mean flurescence intensity was plotted against the log Centyrin concentration and EC50 values were calculated by nonlinear regression using GraphPad Prism.

Test [5] addresses unrelated Fc-fused recombinant protein. Put plainly: ELISA, negative control Fc protein.
Another test addresses T2, human serum albumin (human, UniProt P02768 25-609).
T2 construct: Negative control of the ELISA; also called HSA
The test is described as follows: ELISA, negative control HSA. An outline of the steps: as §1

Test [6] concerns the target T3, recombinant human CD137-Fc-IgG1 (human, UniProt Q07011 24-186, limits assumed).
T3 construct: Captured by anti human IgG on the Biacore chip
The test is described as follows: SPR (Biacore T100), CD137-Fc captured by anti human IgG, 1:1 model. As to the method: For selected FN3 domains, binding to recombinant CD137-Fc was evaluated using surface plasmon resonance (Biacore T100). For each cycle approximately 500 RU of recombinant human CD137-Fc-IgG1 was captured via an anti human IgG immobilized on the surface of a CMS chip. Once CD137-Fc protein was captured, increasing concentrations of Centyrin candidates were injected for 120 s and dissociation was then analyzed for 240 s. A flow cell immobilized with just the anti human IgG1 antibody served as reference flow cell. Kd values were subsequently extrapolated using a 1:1 kinetic binding model (BiaEvaluation software).
A general note: SPR reads the build-up and loss of mass on a sensor chip optically.

Test [7] concerns the target T4, recombinant biotinylated CD137 protein (Fc-fusion protein, R&D Systems 838-4B) (human, UniProt Q07011 24-186, biotinylated, sites not stated).
T4 construct: Bought Fc fusion; also called CD137-Fc
Put plainly: ELISA, lysate on biotinylated CD137-Fc. An outline of the steps: as §1

T2 sequence (P02768 25-609 limits assumed): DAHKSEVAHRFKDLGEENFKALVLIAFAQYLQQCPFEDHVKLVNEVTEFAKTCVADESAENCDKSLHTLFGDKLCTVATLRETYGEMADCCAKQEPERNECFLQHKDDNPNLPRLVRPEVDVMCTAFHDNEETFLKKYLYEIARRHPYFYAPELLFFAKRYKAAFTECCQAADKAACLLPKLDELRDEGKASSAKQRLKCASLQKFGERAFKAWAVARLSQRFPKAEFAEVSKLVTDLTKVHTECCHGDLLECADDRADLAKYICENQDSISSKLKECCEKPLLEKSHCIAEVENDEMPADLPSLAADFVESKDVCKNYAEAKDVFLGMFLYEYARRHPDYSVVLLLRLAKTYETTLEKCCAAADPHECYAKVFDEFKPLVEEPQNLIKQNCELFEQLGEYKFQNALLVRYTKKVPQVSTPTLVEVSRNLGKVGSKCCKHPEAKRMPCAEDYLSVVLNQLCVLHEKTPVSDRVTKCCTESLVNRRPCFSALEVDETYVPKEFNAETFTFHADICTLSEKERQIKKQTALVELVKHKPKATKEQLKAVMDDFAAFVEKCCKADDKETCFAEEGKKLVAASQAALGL
Chain of human serum albumin (human) (P02768 25-609 limits assumed): as above

B1: ISOP120HR5P1E2 (designed binder, not shown: small tags and cut ends)
chain: LPAPKNLVVSHVTEDSARLSWTAPDAAFDSFEIYYLEGGRGEAIVLTVPGSERSYDLTVLKPGTEYLGTIYGVKCGWASNPLSAIFTT
notes: FN3 domain (Centyrin); tested as E. coli lysate
As for B1, the ELISA HSA (RLU) in test [1] came to 2880 RLU. In addition, the ELISA Fc Control (RLU) in test [2] amounted to 720 RLU. The “ELISA CD137-Fc (RLU)” value in test [3] was determined as 1.32e+06 RLU.

B2: ISOP193ER9P1A3 (designed binder, not shown: small tags and cut ends)
chain: LPAPKNLVVSRVTEDSARLSWTTPDAAFDSFDIYYFEHPVGGEAIVLTVPGSERSYDLTGLKPGTEYLVTIYGVKGGYLSKPLSAIFTT
In test [4], B2 showed a half-maximal effective concentration (EC50) of 10.2 nM. Also, the ELISA Fc Control (RLU) in test [5] stood at 3040 RLU. Besides, the “ELISA HSA (RLU)” value in the test with human serum albumin came out at 880 RLU. In addition, in test [6], the Kd was found to be 8.3 nM. The “ELISA CD137 (RLU)” value in test [7] was found to be 1.42e+07 RLU.

B3: ISOP193ER9P1E1 (designed binder, not shown: small tags and cut ends)
chain: LPAPKNLVVSRVTEDSARLSWTAPDAAFDSFDIYYFEHPVGGEAIVLTVPGSERSYDLTGLKPGTEYLVTIYGVKGGSVSIPLSAIFTT
With B3, a half-maximal effect in test [4] (EC50) was put at 12.6 nM. Moreover, the ELISA Fc Control (RLU) in test [5] came to 1200 RLU. Moreover, the “ELISA HSA (RLU)” value with human serum albumin amounted to 560 RLU. In addition, the dissociation constant (Kd) in test [6] came to 10.6 nM. Further, the “ELISA CD137 (RLU)” value in test [7] turned out to be 1.5e+07 RLU.

B4: ISOP193ER9P1C4 (designed binder, not shown: small tags and cut ends)
chain: LPAPKNLVVSRVTEDSARLSWTAPDAAFDSFDIYYFEHPVGGEAIVLTVPGSERSYDLTGLKPGTEYLVTIYGVKGGIWSVPLSAIFTT
Molecule B4 yielded an EC50 in test [4] of 18.9 nM. Moreover, the ELISA Fc Control (RLU) in test [5] is 960 RLU. For the same molecule, in the test with human serum albumin, the “ELISA HSA (RLU)” value stood at 320 RLU. In addition, in test [6], the Kd came out at 13.1 nM. Also, the “ELISA CD137 (RLU)” value in test [7] is 1.55e+07 RLU.

B5: ISOP193ER9P1A4 (designed binder, not shown: small tags and cut ends)
chain: LPAPKNLIVSRVTEDSARLSWTAPDAAFDSFEIYYKELRAEGEAIVLTVPGSERSYDLTGLKPGTEYLVTIYGVKGGSVSIPLSAIFTT
B5 gave an EC50 in test [4] of 27.1 nM. Moreover, the ELISA Fc Control (RLU) in test [5] worked out at 960 RLU. Moreover, in the test with human serum albumin, the “ELISA HSA (RLU)” value worked out at 480 RLU. The Kd in test [6] was found to be 117 nM. The “ELISA CD137 (RLU)” value in test [7] is 9.81e+06 RLU.

B6: ISOP193ER9P1G2 (designed binder, not shown: small tags and cut ends)
chain: LPAPKNLVVSRVTEDSARLSWTAPDAAFDSFDIYYFEQPVGGEAIVLTVPGSERSYDLTGLKPGTEYLVTIYGVKGGYLSMPLSAIFTT
In turn, B6 yielded an EC50 in test [4] of 22.9 nM. Moreover, the ELISA Fc Control (RLU) in test [5] was found to be 1680 RLU. Further, the “ELISA HSA (RLU)” value in the test with human serum albumin was found to be 720 RLU. In addition, the dissociation constant (Kd) in test [6] stood at 65.6 nM. The “ELISA CD137 (RLU)” value in test [7] was found to be 7.19e+06 RLU.

B7: ISOP193ER9P1D4 (designed binder, not shown: small tags and cut ends)
chain: LPAPKNLVVSRVTEDSARLSWTAPDAAFDSFDIYYFEHPVGGEAIVLTVPGSERSYDLTGLKPGTEYLVTIYGVKGGTYSPPLSAIFTT
In the case of B7, the response in test [4] was half-maximal at 12.9 nM (EC50). Also, the ELISA Fc Control (RLU) in test [5] was found to be 1120 RLU. The “ELISA HSA (RLU)” value with human serum albumin amounted to 480 RLU. In addition, the dissociation constant (Kd) in test [6] came to 9.55 nM. The “ELISA CD137 (RLU)” value in test [7] turned out to be 1.6e+07 RLU.

B8: ISOP193ER9P1G9 (designed binder, not shown: small tags and cut ends)
chain: LPAPKNLVVSRVTEDSARLSWTAPDAAFDSFDIYYFEHPVGGEAIVLTVPGSERSYDLTGLKPGTEYLVTIYGVKGGNGSSPLSAIFTT
B8 showed an EC50 in test [4] of 15.3 nM. Moreover, the ELISA Fc Control (RLU) in test [5] is 1280 RLU. For the same molecule, in the test with human serum albumin, the “ELISA HSA (RLU)” value amounted to 400 RLU. In test [6], the Kd stood at 59.9 nM. The “ELISA CD137 (RLU)” value in test [7] is 1.29e+07 RLU.

B9: ISOP193ER9P1E2 (designed binder, not shown: small tags and cut ends)
chain: LPAPKNLVVSRVTEDSARLSWTAPDAAFDSFDIYYFEHPVGGEAIVLTVPGSERSYDLTGLKPGTEYLVTIYGVKGGFWSQPLSAIFTT
For the molecule B9, in test [4], a half-maximal effect (EC50) was put at 15.3 nM. The ELISA Fc Control (RLU) in test [5] worked out at 1040 RLU. In the test with human serum albumin, the “ELISA HSA (RLU)” value was 560 RLU. Besides, in test [6], the Kd turned out to be 10.9 nM. Further, in test [7], the “ELISA CD137 (RLU)” value is 1.57e+07 RLU.

B10: ISOP193ER9P1C9 (designed binder, not shown: small tags and cut ends)
chain: LPAPKNLVVSRVTEDSARLSWTAPDAAFDSFDIYYFEHPVGGEAIVLTVPGSERSYDLTGLKPGTEYLVTIYGVKGGELSKPLSAISTT
For B10, the EC50 in test [4] came to 14.1 nM. For the same molecule, in test [5], the ELISA Fc Control (RLU) was found to be 880 RLU. In addition, in the test with human serum albumin, the “ELISA HSA (RLU)” value was 560 RLU. Further, in test [6], the equilibrium dissociation constant (Kd) stood at 25.1 nM. Besides, the “ELISA CD137 (RLU)” value in test [7] is 1.43e+07 RLU.

B11: ISOP193ER9P1C10 (designed binder, not shown: small tags and cut ends)
chain: LLAPKNLVVSRVTEDSARLSWIAPDAAFDSFEIYYKELRAEGEAIVLTVPGSERSYDLTGLKPGTEYLVTIYGVKGGSVSIPLSAIFTT
The molecule B11 showed an EC50 in test [4] of 31 nM. The ELISA Fc Control (RLU) in test [5] worked out at 2480 RLU. Moreover, the “ELISA HSA (RLU)” value in the test with human serum albumin stood at 560 RLU. Also, the Kd in test [6] was determined as 108 nM. Moreover, in test [7], the “ELISA CD137 (RLU)” value is 8.87e+06 RLU.

What is called EC50 is the concentration that produces a half-maximal response. The term Kd denotes the free concentration of one partner at which half of the binding sites on the other are occupied at equilibrium, for simple one-to-one binding.

(Values after patent publication US20220259289A1 (Janssen / Centocor, published 2022).)
